Results taken from patent US20180086832A1 (Johns Hopkins, published 2018).
Positions count from the first letter of the chain named. In names and notes the source's numbering stands.

Columns and labels:
[1] = target: T1, EGFR(WT)-HLA-A3 (human); experiment: off-rate ELISA on monomer-coated strips, 22 C
T1 construct: also called EGFR(WT) peptide-pulsed T2A3 cells

[2] = target: T2, KRAS(WT)-HLA-A2 (human, biotinylated in the recombinant monomer (site not stated)); experiment: off-rate ELISA on monomer-coated strips
T2 construct: Monomer in ELISA and off-rate assays; on pulsed T2 cells in flow cytometry and CDC; also called KRAS(WT)-HLA-A2 monomer; KRAS(WT) peptide-pulsed T2 cells

[3] = target: T2, KRAS(WT)-HLA-A2; experiment: phage ELISA after affinity maturation
[4] = target: T3, KRAS(WT)-HLA-A3 (human, biotinylated in the recombinant monomer (site not stated)); experiment: flow cytometry, T2A3 cells pulsed with the KRAS(WT) control peptide
T3 construct: Monomer in ELISA; also called KRAS(WT)-HLA-A3 monomer; KRAS(WT) control peptide on T2A3 cells

[5] = target: T2, KRAS(WT)-HLA-A2; experiment: ELISA on monomers, anti-human IgG
[6] = target: T4, ELA control peptide on HLA-A2 (human); experiment: flow cytometry, peptide-pulsed T2 cells
T4 construct: ELA-pulsed T2 cells; also called negative HLA-A2 control peptide ELA; irrelevant peptide

[7] = target: T2, KRAS(WT)-HLA-A2; experiment: flow cytometry, peptide-pulsed T2 cells
[8] = target: T3, KRAS(WT)-HLA-A3; experiment: ELISA of purified scFv on monomers, anti-Flag

B1: purified C9 scFv (scFv)
scFv: DIQMTQSPSSLSASVGDRVTITCRASQDVNTAVAWYQQKPGKAPKLLIYSASFLYSGVPSRFSGSRSGTDFTLTISSLQPEDFATYYCQQYYSYPPTFGQGTKVEIKRTGGGSGGGGSGGGASEVQLVESGGGLVQPGGSLRLSCAASGFNITSSYIHWVRQAPGKGLEWVAYISPEDGYARHADSVKGRFTISADTSKNTAYLQMNSLRAEDTAVYYCSRDDTYYYSAMDVWGQGTLVTVSS
notes: not shown: Flag and His tags
For B1, the koff [1] was 3e-05 s⁻¹.

B2: purified D10-7 scFv (scFv, not shown: small tags and cut ends)
scFv: DIQMTQSPSSLSASVGDRVTIACRASQDVNTAVAWYQQKPGKAPKLLIYSASFLYSGVPSRFSGSRSGTDFTLTISSLQPEDFATYYCQQYYYYPPTFGQGTKVEIKRTGGGSGGGGSGGGASEVQLVESGGGLVQPGGSLRLSCAASGFHINGSYIHWVRQAPGKGLKWVAYIDPETGYSRYADSVKGRFAISADMSKNTAYLQMNSLRAEDTAVYYCSRDSASDAMDVWGQGTLVTVSS
notes: conjugated to an anti-V5 antibody in the CDC assay
B2: no binding [2].

B3: clone D10-7 (phage, as tested by ELISA in the affinity maturation) (scFv)
scFv: B2 scFv
notes: One of eight clones from the error-prone PCR library of D10; not shown: phage display fusion partner used at AxioMx is not described
B3: no binding [3].

B4: phage clone C9 (scFv, not shown: large carriers)
scFv: B1 scFv
notes: also called C9 phage
B4: no binding [4].

B5: D10 MANAbody (antibody, V domains shown)
VH: EVQLVESGGGLVQPGGSLRLSCAASGFNINGSYIHWVRQAPGKGLEWVAYIDPETGYSRYADSVKGRFTISADTSKNTAYLQMNSLRAEDTAVYYCSRDSASDAMDVWGQGTLVTVSS
VL: DIQMTQSPSSLSASVGDRVTITCRASQDVNTAVAWYQQKPGKAPKLLIYSASFLYSGVPSRFSGSRSGTDFTLTISSLQPEDFATYYCQQYYYYPPTFGQGTKVEIK
notes: Complete bivalent antibody made in Expi293 cells; also called full-length D10 MANAbody; D10 antibody
B5: no binding (tested: 1 µg/mL (top of the dilution series)) [5].

B6: D3E6 phage (scFv)
scFv: DIQMTQSPSSLSASVGDRVTITCRASQDVNTAVAWYQQKPGKAPKLLIYSASFLYSGVPSRFSGSRSGTDFTLTISSLQPEDFATYYCQQYYYYPPTFGQGTKVEIKRTGGGSGGGGSGGGASEVQLVESGGGLVQPGGSLRLSCAASGFNISTSYIHWVRQAPGKGLEWVATIDPNDGYSRYADSVKGRFTISADTSKNTAYLQMNSLRAEDTAVYYCSRTNNTAADAMDVWGQGTLVTVSS
notes: also called EGFR T790M clone 1; not shown: myc tag, TEV cleavage site and full length M13 pIII coat protein
B6: no binding [6].

B7: KRAS G12V_F10 AM#1 (scFv)
scFv: DIQMTQSPSSLSASVGDRVTITCRASQDVNTAVAWYQQKPGKAPKLLIYSASFLYSGVPSRFSGSRSGTDFTLTISSLQPEDFATYYCQQYYYYPPTFGQGTKVEIKRTGGGSGGGGSGASEVQLVESGGGLVQPGGSLRLSCAASGFNINSNYIHWVRQAPGKGLEWVAYITPETGYYHYADSVKGRFTISADTSKNTAYLQMNSLRAEDTAVYYCSRNYYSAYAMDVWGQGTLVTVSS
B7: no binding [7].

B8: KRAS G12V_F10 AM#2 (scFv)
scFv: B7 scFv with S50G, N149Y
B8: no binding [7].

B9: KRAS G12V_F10 AM#3 (scFv)
scFv: B7 scFv with T5S, A25T, V29A, I48F, Y55F, H180R
B9: no binding [7].

B10: purified D10 scFv (scFv, not shown: small tags and cut ends)
scFv: B2 scFv with A22T, H151N, K169E, A192T, M197T
notes: Flag/His form in ELISA, AlphaScreen and off-rate assays; V5/His form in cell staining and, conjugated 2:1 to an anti-V5 mouse antibody, in the CDC assay
B10: no binding (tested: 1 µg/mL (top of the dilution series)) [8].
